Assay results published in PMC7584215, ““The structure of the Type III secretion system export gate with CdsO, an ATPase lever arm”” (PLoS Pathogens, 2020).

B1: CdsV C-terminal region (residues 345-710) from Chlamydia pneumoniae (domain or fragment)
chain: ASTTVGAAGDGAATVGDNPDDYSLTLPVILELGKDLSKLIQHKTKSGQSFVDDMIPKMRQALYQDIGIRYPGIHVRTDSPSLEGYDYMILLNEVPYVRGKIPPHHVLTNEVEDNLSRYNLPFITYKNAAGLPSAWVSEDAKAILEKAAIKYWTPLEVIILHLSYFFHKSSQEFLGIQEVRSMIEFMERSFPDLVKEVTRLIPLQKLTEIFKRLVQEQISIKDLRTILESLSEWAQTEKDTVLLTEYVRSSLKLYISFKFSQGQSAISVYLLDPEIEEMIRGAIKQTSAGSYLALDPDSVNLILKSMRNTITPTPAGGQPPVLLTAIDVRRYVRKLIETEFPDIAVISYQEILPEIRIQPLGRIQIF
notes: CdsV (export gate protein, SctV family), Chlamydia pneumoniae, residues 345-710, the cytoplasmic C-terminal region; Cloned into pET28 with the vector's N-terminal hexa-His tag and thrombin cleavage site; Homo-nonameric ring; also called WT CdsVc; soluble export gate; source: nonameric peak fractions pooled
B2: CdsO residues 25-110 from Chlamydia pneumoniae (domain or fragment)
chain: KEKRRLLEIEQEKLREKEAERDKVKNHYMQKIQQLRDLLDEGTTSDAVLQIKSYIKVVAVQLSEEEEKVNKQKEVVLAASKELEKA
notes: CdsO (central stalk protein of the T3SS ATPase, SctO family), Chlamydia pneumoniae, residues 25-110 of the 168 residues of full-length CdsO; Cloned into pET28 as CdsV; Called monomeric in the ITC methods; also called CdsO_(25-110); central stalk protein

Key:
[1] = target: the molecule itself; assay: crystal structure; CdsVC alone; hanging drop, 100 mM HEPES pH 6.75, 5% PEG-6000, 21°C; refined to 2.8 Å
[2] = target: B1; assay: crystal structure; CdsVC mixed with ~10% molar excess of CdsO_(25-110); 100 mM Bis-Tris pH 6.0, 4% PEG 3350, 200 mM ammonium acetate; refined to 4.6 Å; settings: both partners purified
[3] = target: B1; assay: ITC; monomeric CdsO_(25-110) (2.2 mM) titrated into nonameric CdsVc (15.0 uM) or nonameric CdsVc L638A/D639A (12.1 uM); 20°C; 10 mM HEPES pH 7.5, 500 mM NaCl; 24 x 2 uL injections; settings: both partners purified

Row | Binder | stoichiometry N [1] | stoichiometry N [2] | Kd [3]
1 | B1 | 9 | – | –
2 | B2 | – | 1 | 28 ± 3 µM
